The text below walks through data of US20200400655A1, “RATIOMETRIC BRET MEASUREMENTS OF ATP WITH A GENETICALLY-ENCODED LUMINESCENT SENSOR” (Purdue Research Foundation, priority 2019, published 2020).

The nature of data set [1]: ATP dose-response of purified mScarlet-ε-NanoLuc, luminescence BRET ratio on microplate reader. The data set is classed as binding. The following applies: purified protein; for BRET ratio: n=3. The source says:
(§1) Protein Engineering and Library Screen. Sensors were constructed by Gibson Assembly using the NEB HiFi kit, sub-cloned into the pRSETB vector for expression as His-tagged protein in BL21(DE3) E. coli, and purified by nickel-affinity chromatography. CeNL/pcDNA3 was a gift from Takeharu Nagai (Addgene plasmid #85199), pcDNA3-mNeonGreen was a gift from Richard Day (Indiana University), pCytERm-mScarlet_N1 was a gift from Dorus Gadella (Addgene plasmid #85066), and pBad-HisB-RRvT (Addgene plasmid #87364) and pBad-HisB-GRvT (Addgene plasmid #87363) were gifts from Robert Campbell. The fluorescence and luminescence ATP dose-response curves for purified protein solutions were measured on a BioTek Synergy H4 multi-mode microplate reader at ambient temperature. Luminescence was also measured using a Spectral Instruments Ami HT. Plasmids generated in this study are distributed via Addgene.
The fluorescence and luminescence of purified sensor proteins were investigated in assay buffer (50 mM MOPS-KOH, 50 mM KCl, 0.5 mM MgCl2, and 0.05% Triton X-100, pH 7.3) in a 96-well plate using a BioTek Synergy H4 multi-mode microplate reader at ambient temperature. For FRET library screening, 420/50 and 485/20 nm excitation filters and 485/20, 528/20, and 620/15 nm emission filters were used. For BRET screening, 20 μM coelenterazine-h was used as a substrate of NanoLuc and 450/50, 485/20, 528/20, and 620/15 nm emission filters were used. For characterization of mScarlet-ε-NanoLuc, 20 μM coelenterazine-h was applied to a reaction solution containing the purified sensor protein and 0-10 mM ATP in assay buffer. Luminescence spectra were scanned from 400 to 650 nm. Emissions of NanoLuc and mScarlet were measured using 450/50 and 620/15 nm emission filters, respectively, and the BRET efficiency was obtained by calculating the emission ratio of mScarlet/NanoLuc. Luminescence was also measured using a Spectral Instruments Ami HT with 510/20 and 650/20 nm emission filters (binning 2×2, FOV 25 cm, f-stop 1.2). Purified mScarlet-ε-NanoLuc protein in assay buffer with 0-10 mM ATP was imaged with a 1 sec exposure time after the addition of 20 μM coelenterazine-h. For measurements at different concentrations (1-100 nM) of mScarlet-ε-NanoLuc protein, the purified protein was mixed with 10 mM ATP or 0 mM ATP and imaged after the addition of 20 μM coelenterazine-h with a 5 sec exposure time for a total 30 min. Regions of interest were drawn over each well for all filter sets, and the average radiance was determined.
(In general: Bioluminescence resonance energy transfer reports proximity on the nanometre scale.)

Data set [2] can be described thus: Whole-animal imaging of purified sensor protein placed subcutaneously in mice. The data set is classed as in vivo, Balb/c mice. Conditions: 10 mM vs 0 mM ATP, subcutaneous hindlimb, unshaved mice, n=3. The procedure:
(§2) Animal Imaging System. All animal procedures were performed in strict accordance with recommendations provided in the National Institutes of Health (NIH) Guide for the Care and Use of Laboratory Animals, according to protocols approved by the Purdue Animal Care and Use Committee and the Purdue University Laboratory Animal Program to minimize pain and suffering. Male and female adult Balb/c and FVB mice were sacrificed and then injected with protein solution or live cells subcutaneously in the hind limb area. NanoLuc substrate, either 20 μM coelenterazine-h or 0.5× Promega Nano-Glo furimazine solution, was mixed with the sample just prior to injection. Protein, cells, and animals were imaged at ambient temperature. […] Therefore, in this study we used the SI Ami HT equipped with a 510/20 nm and 650/20 nm emission filters for all subsequent experiments.
For imaging of purified protein in mice, mScarlet-ε-NanoLuc protein pre-equilibrated with 0 mM or 10 mM ATP was mixed with 20 μM coelenterazine-h. The reaction mixture was enclosed in a custom plastic tube and placed subcutaneously in the left (0 mM ATP) and right (10 mM ATP) hindlimb areas of adult Balb/c mice carcass. The sequential imaging was immediately performed using a spectral Ami with 510/20 and 650/20 nm filters (30 sec exposure time, binning 2×2, FOV 25, f-stop 1.2). […]

Data set [3] concerns HEK293A cells. The experiment in a line: Live single-cell BRET microscopy with metabolic inhibition. The data set is classed as cell-based. The following applies: metabolic inhibition with 10 mM 2DG and 2.5 μM oligomycin A, ambient temperature. The procedure: Live single-cell microscopy. The sensor genes were sub-cloned into the GW1 mammalian expression vector, and HEK293A cells were transfected by the calcium phosphate method. Cells were imaged with 30 second exposure times and 2 minute imaging interval on an Olympus IX83 microscope with a 40× 1.35 NA Apo oil objective, an Andor Xyla 4.2 sCMOS camera at 2-by-2 pixel binning, and 470/24 nm and 632/60 nm emission filters. Just prior to the addition of furimazine, well volume was exchanged twice with imaging media without glucose. After adding furimazine, a three point baseline was acquired. […] Cells were imaged for ˜30 minutes until luminescence decayed to background. Image backgrounds were subtracted before calculating the ratio images of the luminescence channels using ImageJ. […]
After removing the plate from the incubator, cell growth media was exchanged for imaging media (15 mM HEPES, 120 mM NaCl, 3 mM KCl, 3 mM NaHCO3, 1.25 mM NaH2PO4, 10 mM glucose, 2 mM CaCl2, 1 mM MgCl2). Imaging regions were determined using mScarlet fluorescence and DIC. […] Cells were imaged until luminescence decayed to background (20-30 minutes). Image backgrounds were subtracted (rolling ball radus 100 pixels) before calculating the ratio images of the luminescence channels using ImageJ. […] For FIG. 3, binary masks were generated using channel luminescence to remove pixels in ratio image corresponding to background. […]

The nature of data set [4]: Library screen: FRET and BRET dynamic range of purified sensors after addition of saturating ATP. The data set is classed as binding.
Description: as §1, with “Plasmids generated in this study are distributed via Addgene.” left out
(§3) The fluorescence and luminescence of purified sensor proteins were investigated in assay buffer (50 mM MOPS-KOH, 50 mM KCl, 0.5 mM MgCl2, and 0.05% Triton X-100, pH 7.3) in a 96-well plate using a BioTek Synergy H4 multi-mode microplate reader at ambient temperature. […] Luminescence spectra were scanned from 400 to 650 nm. Emissions of NanoLuc and mScarlet were measured using 450/50 and 620/15 nm emission filters, respectively, and the BRET efficiency was obtained by calculating the emission ratio of mScarlet/NanoLuc. […]

Data set [5] in a line: Ratiometric BRET imaging of purified mScarlet-ε-NanoLuc protein on SI Ami HT whole-animal imaging system. Type of data set: binding. The following applies: protein solutions.
Description: as §1, with “Plasmids generated in this study are distributed via Addgene.” left out
as §3

Data set [6] relates to HEK293A cells. The experiment in a line: Whole-animal imaging of sensor-expressing live cell suspensions injected subcutaneously in mice. Type of data set: in vivo. The following applies: 10^6 live cells subcutaneous, unshaved adult FVB mice, n=6. Here is the method: as §2
For imaging of purified protein in mice, mScarlet-ε-NanoLuc protein pre-equilibrated with 0 mM or 10 mM ATP was mixed with 20 μM coelenterazine-h. […]
We next carried out ratiometric imaging of live cells injected in whole animals. […] The total luminescence intensity provides an indicator of the total protein expression level, and critically we observed that the BRET ratio was dependent on the metabolic condition only and was independent of the level of luminescence intensity (FIG. 5).

The subject of data set [7] is HEK293A cells. The data set is described as follows: Bioluminescence imaging of adherent sensor-expressing cells in Spectral Ami, glucose vs metabolic inhibitors. The following applies: for mScarlet-ε-NanoLuc ratio signal: n=6. The data set is classed as cell-based. The procedure:
HEK293A cells were transfected with plasmids carrying mScarlet-ε-NanoLuc by calcium phosphate method. One day after transfection, cells were passaged onto a 96-well plate at different cell densities from 1,250 to 20,000 cells per well. After an additional 24-48 hours, imaging was performed using a spectral Ami with 510/20 nm and 650/20 nm filters (5 sec exposure time, binning 2×2, FOV 25 cm, f-stop 1.2) immediately after the addition of 20 μM coelenterazine-h.
We first validated that we could measure differences in energy metabolism using adherent cell cultures. HEK293A cells expressing mScarlet-ε-NanoLuc were seeded at different densities, from 62,500 cells/cm^2 down to 4,000 cell/cm^2 to determine the sensitivity of detection in the Spectral Ami system. […] Thus, the sensor effectively detects metabolic differences in live cells in a dish within the animal imager.

B1: mScarlet-ε-NanoLuc: BRET-only ATP sensor: mScarlet (N-terminus), B. subtilis ε subunit, NanoLuc (C-terminus); SEQ ID NO:1 (protein)
chain: MVSKGEAVIKEFMRFKVHMEGSMNGHEFEIEGEGEGRPYEGTQTAKLKVTKGGPLPFSWDILSPQFMYGSRAFTKHPADIPDYYKQSFPEGFKWERVMNFEDGGAVTVTQDTSLEDGTLIYKVKLRGTNFPPDGPVMQKKTMGWEASTERLYPEDGVLKGDIKMALRLKDGGRYLADFKTTYKAKKPVQMPGAYNVDRKLDITSHNEDYTVVEQYERSEGRHSTGRHIDMKTVKVNITTPDGPVYDADIEMVSVRAESGDLGILPGHIPTKAPLKIGAVRLKKDGQTEMVAVSGGTVEVRPDHVTINAQAAETAEGIDKERAEAARQRAQERLNSQSDDTDIRRAELALQRALNRLDVAGKANEFMLEDFVGDWRQTAGYNLDQVLEQGGVSSLFQNLGVSVTPIQRIVLSGENGLKIDIHVIIPYEGLSGDQMGQIEKIFKVVYPVDDHHFKVILHYGTLVIDGVTPNMIDYFGRPYEGIAVFDGKKITVTGTLWNGNKIIDERLINPDGSLLFRVTINGVTGWRLCERILA
modifications: mScarlet-e-NanoLuc
As to B1, the BRET ratio amounted to 0.0063±0.0001 in data set [1] (0 mM ATP) and 0.0324±0.009 in data set [1] (10 mM ATP). For the same molecule, the “BRET ratio stability over time during luminescence intensity decay” value in data set [1] is “stable over time”. For the same molecule, in data set [1], the “maximal change in BRET ratio upon ATP saturation” value is “greater than 4 fold”. In addition, the “difference in the ratio with vs without ATP imaged through tissue and fur” value in data set [2] was “greater than 3 fold”. In addition, the “change in the absolute BRET ratio” value with HEK293A cells [3] was −71%. In addition, the “Fold-Change in Ratio BRET” value in data set [4] (after addition of saturating ATP, purified protein, 20 μM coelenterazine-h) is reported as 5.12 ± 0.18. For the same molecule, the “change in the BRET ratio upon saturation with ATP” value in data set [4] (purified sensor, zero to saturating ATP) is 5 fold. Also, the “dynamic range in ATP dose response” value in data set [5] is 5 fold. Besides, the “ratio difference between glucose and inhibitor-treated cells through tissue and fur, compared with cell suspensions in a dish” value in the data set on HEK293A cells [6] is listed as “same ratio difference”. In addition, in the data set with HEK293A cells [7], the “difference in ratio signal, glucose vs metabolic inhibitors” value is given as ~3 fold. For the same molecule, the mScarlet-ε-NanoLuc ratio signal in the data set with HEK293A cells [7] (addition of glucose) was found to be 0.29±0.04; in the data set on HEK293A cells [7] (metabolic inhibitors 2DG and oligomycin A), 0.11±0.01.
